Laboratory results taken from publication PMC7367873, “Dissecting the sequence determinants for dephosphorylation by the catalytic subunits of phosphatases PP1 and PP2A” (Nature Communications, 2020).

B1: TUBB4A (protein, UniProt P04350 1-444, looked up)
Tubulin beta-4A chain: MREIVHLQAGQCGNQIGAKFWEVISDEHGIDPTGTYHGDSDLQLERINVYYNEATGGNYVPRAVLVDLEPGTMDSVRSGPFGQIFRPDNFVFGQSGAGNNWAKGHYTEGAELVDAVLDVVRKEAESCDCLQGFQLTHSLGGGTGSGMGTLLISKIREEFPDRIMNTFSVVPSPKVSDTVVEPYNATLSVHQLVENTDETYCIDNEALYDICFRTLKLTTPTYGDLNHLVSATMSGVTTCLRFPGQLNADLRKLAVNMVPFPRLHFFMPGFAPLTSRGSQQYRALTVPELTQQMFDAKNMMAACDPRHGRYLTVAAVFRGRMSMKEVDEQMLSVQSKNSSYFVEWIPNNVKTAVCDIPPRGLKMAATFIGNSTAIQELFKRISEQFTAMFRRKAFLHWYTGEGMDEMEFTEAESNMNDLVSEYQQYQDATAEEGEFEEEAEEEVA
B2: CPS1 (protein, UniProt P31327 39-1500, looked up)
Carbamoyl-phosphate synthase …: LSVKAQTAHIVLEDGTKMKGYSFGHPSSVAGEVVFNTGLGGYPEAITDPAYKGQILTMANPIIGNGGAPDTTALDELGLSKYLESNGIKVSGLLVLDYSKDYNHWLATKSLGQWLQEEKVPAIYGVDTRMLTKIIRDKGTMLGKIEFEGQPVDFVDPNKQNLIAEVSTKDVKVYGKGNPTKVVAVDCGIKNNVIRLLVKRGAEVHLVPWNHDFTKMEYDGILIAGGPGNPALAEPLIQNVRKILESDRKEPLFGISTGNLITGLAAGAKTYKMSMANRGQNQPVLNITNKQAFITAQNHGYALDNTLPAGWKPLFVNVNDQTNEGIMHESKPFFAVQFHPEVTPGPIDTEYLFDSFFSLIKKGKATTITSVLPKPALVASRVEVSKVLILGSGGLSIGQAGEFDYSGSQAVKAMKEENVKTVLMNPNIASVQTNEVGLKQADTVYFLPITPQFVTEVIKAEQPDGLILGMGGQTALNCGVELFKRGVLKEYGVKVLGTSVESIMATEDRQLFSDKLNEINEKIAPSFAVESIEDALKAADTIGYPVMIRSAYALGGLGSGICPNRETLMDLSTKAFAMTNQILVEKSVTGWKEIEYEVVRDADDNCVTVCNMENVDAMGVHTGDSVVVAPAQTLSNAEFQMLRRTSINVVRHLGIVGECNIQFALHPTSMEYCIIEVNARLSRSSALASKATGYPLAFIAAKIALGIPLPEIKNVVSGKTSACFEPSLDYMVTKIPRWDLDRFHGTSSRIGSSMKSVGEVMAIGRTFEESFQKALRMCHPSIEGFTPRLPMNKEWPSNLDLRKELSEPSSTRIYAIAKAIDDNMSLDEIEKLTYIDKWFLYKMRDILNMEKTLKGLNSESMTEETLKRAKEIGFSDKQISKCLGLTEAQTRELRLKKNIHPWVKQIDTLAAEYPSVTNYLYVTYNGQEHDVNFDDHGMMVLGCGPYHIGSSVEFDWCAVSSIRTLRQLGKKTVVVNCNPETVSTDFDECDKLYFEELSLERILDIYHQEACGGCIISVGGQIPNNLAVPLYKNGVKIMGTSPLQIDRAEDRSIFSAVLDELKVAQAPWKAVNTLNEALEFAKSVDYPCLLRPSYVLSGSAMNVVFSEDEMKKFLEEATRVSQEHPVVLTKFVEGAREVEMDAVGKDGRVISHAISEHVEDAGVHSGDATLMLPTQTISQGAIEKVKDATRKIAKAFAISGPFNVQFLVKGNDVLVIECNLRASRSFPFVSKTLGVDFIDVATKVMIGENVDEKHLPTLDHPIIPADYVAIKAPMFSWPRLRDADPILRCEMASTGEVACFGEGIHTAFLKAMLSTGFKIPQKGILIGIQQSFRPRFLGVAEQLHNEGFKLFATEATSDWLNANNVPATPVAWPSQEGQNPSLSSIRKLIRDGSIDLVINLPNNNTKFVHDNYVIRRTAVDSGIPLLTNFQVTKLFAEAVQKSRKVDSKSLFHYRQYSAGKAA

Assays:
[1] = system: GFP-14-3-3β and its binding proteins; assay: GFP-14-3-3β co-IP with LC-MS/MS label-free quantification, untreated versus PP1c-treated; set-up: species or system human; conditions: PP1 vs untreated; LFQ intensities; 3 replicates each
GFP-14-3-3β = GFP-14-3-3β co-IP with LC-MS/MS, untreated GFP-14-3-3β versus GFP control (14-3-3 interactome); assay type: binding, human; conditions: untreated vs GFP; LFQ intensities; 3 replicates each

| Molecule | Difference (log2), PP1 vs untreated [1] [log2] | Difference (log2), untreated vs GFP (GFP-14-3-3β) [log2] |
| --- | --- | --- |
| B1 | 0.4246 | -1.261 |
| B2 | 0.4276 | 0.419 |
